# Experimental data reported in article PMC3794156, “Structure of the ParM filament at 8.5 Å resolution” (Journal of Structural Biology, 2013).
# B1: ParM (actin-like protein of the ParMRC system of Escherichia coli R1 plasmid), wild type (natural protein)
# chain: MLVFIDDGSTNIKLQWQESDGTIKQHISPNSFKREWAVSFGDKKVFNYTLNGEQYSFDPISPDAVVTTNIAWQYSDVNVVAVHHALLTSGLPVSEVDIVCTLPLTEYYDRNNQPNTENIERKKANFRKKITLNGGDTFTIKDVKVMPESIPAGYEVLQELDELDSLLIIDLGGTTLDISQVMGKLSGISKIYGDSSLGVSLVTSAVKDALSLARTKGSSYLADDIIIHRKDNNYLKQRINDENKISIVTEAMNEALRKLEQRVLNTLNEFSGYTHVMVIGGGAELICDAVKKHTQIRDERFFKTNNSQYDLVNGMYLIGN
# notes: ParM, plasmid segregation protein of actin fold, encoded by Escherichia coli R1 plasmid; Forms double-helical filaments of two protofilaments with AMPPNP or ATP; also called ParM protein; wild type protein; source: E. coli BL21-AI, plasmid pJSC1, in cell lysate for the polymerisation assay
# Target: the molecule itself
# Experiment: cryo-EM structure; 30 uM ParM in polymerisation buffer (30 mM Tris-HCl, 25 mM KCl, 2 mM MgCl2, 1 mM DTT, pH 7.5) with 5 mM AMPPNP, 5 min at room temperature; filaments spun down and resuspended; helical reconstruction at 8.5 Å
protein,measurement,value
B1,binding result,binds
